Assay results as given in the supplement of paper PMC9732359.
± gives the uncertainty stated by the source.

Experiment: protein stability index of a GFP-peptide fusion (yeast GPS) (PSI 1-4); higher = more stable; sorted into four equal gates, so the index is relative within each strain
Outline: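 Tiled 17-residue peptides from yeast proteins were fused downstream of GFP on a plasmid that also expresses Cherry, and the pooled library was carried in yeast. Mid-log cultures grown in leucine-free medium were sorted into four equal gates by GFP/Cherry fluorescence ratio. Plasmids from each gate were PCR-amplified and Illumina-sequenced, and reads were assigned to strains by barcodes. Each peptide's protein stability index is the sum, over gates, of the gate's read frequency multiplied by its gate number.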

Sequence | protein stability index (doa10∆) | protein stability index (pdr5∆) | protein stability index (san1∆) | protein stability index (ubr1∆)
MDLLKFSSLAISEINFL [CSI1] | 2.1 ± 0.045 | 2.49 ± 0.037 | 2.16 ± 0.053 | 2.35 ± 0.047
KVLARQQLQVLARYLKM [FAS2] | 1.41 ± 0.081 | 1.47 ± 0.083 | 1.75 ± 0.15 | 2.1 ± 0.12
IELIDYDKLPAGQNATV [RET1] | 2.41 ± 0.074 | 1.95 ± 0.079 | 1.67 ± 0.2 | 2.4 ± 0.068
NLGYCNDKLIVDNDNWV [RPN1] | 2.37 ± 0.1 | 2.79 ± 0.18 | 2.32 ± 0.2 | 
GHTLINNYKDLLAVAIA [RPP0] | 1.19 ± 0.17 | 1.61 ± 0.24 | 1.31 ± 0.17 | 1.18 ± 0.16
VILKQILQILDQDELVQ [SWP82] | 2.54 ± 0.051 | 2.52 ± 0.082 | 2.57 ± 0.063 | 2.5 ± 0.06
RLDILDPALLRPGRIDR [RPT6] | 2.79 ± 0.22 |  | 2.65 ± 0.12 | 
GTSLTIQHIAAAMVPFI [CDC53] | 2.75 ± 0.05 | 2.91 ± 0.046 | 2.6 ± 0.066 | 3.03 ± 0.043
LEGNDIHALAAKLLQEN [FAS1] | 2.76 ± 0.063 | 2.95 ± 0.065 | 2.77 ± 0.051 | 2.7 ± 0.059
SLSRDFVMKTRRRKGIS [SNU114] | 3.25 ± 0.2 | 3.31 ± 0.11 | 3.02 ± 0.074 | 2.77 ± 0.22
YLESLFAKQVDVQLERV [IRR1] | 2.49 ± 0.095 | 2.19 ± 0.074 | 2.36 ± 0.12 | 2.5 ± 0.051
LELRNSVMDDILEMMPE [PRP8] | 3.53 ± 0.12 | 3.26 ± 0.12 | 3.15 ± 0.09 | 3.37 ± 0.068
FKSYATRTVITDWDPQF [SMC2] | 2.88 ± 0.11 | 3.06 ± 0.083 | 2.72 ± 0.12 | 2.85 ± 0.097
SHTGLIRKYGLNICRQC [RPS29A] | 1.51 ± 0.047 | 1.58 ± 0.05 | 1.51 ± 0.093 | 1.89 ± 0.053
NMYTSTQKTELEIDNKD [SIR4] | 3.04 ± 0.069 | 3.01 ± 0.081 | 3.04 ± 0.068 | 3.06 ± 0.065
LVQKTVQESGNIDYQKG [GRR1] | 3.5 ± 0.1 | 3.37 ± 0.095 | 3.2 ± 0.09 | 3.23 ± 0.1
VDPEQEAHNKALNQFKR [RPT4] | 3.37 ± 0.19 | 3.26 ± 0.13 | 3.41 ± 0.11 | 3.02 ± 0.14
SKTGIIAYSDSQSSNAN [SIN4] | 2.63 ± 0.043 | 2.6 ± 0.043 | 2.68 ± 0.044 | 2.53 ± 0.058
ANVEILAVEDKPSPIDS [CSL4] | 2.98 ± 0.095 | 2.97 ± 0.13 | 2.57 ± 0.15 | 3.12 ± 0.063
KETIARVTGGMKVKADR [RPS14A] | 3.29 ± 0.11 | 3.13 ± 0.12 | 3.31 ± 0.062 | 3.27 ± 0.073
DELVKLLLDNGFNMKKI [SRP68] |  |  | 2.98 ± 0.24 | 3.52 ± 0.13
PRQRMEEVVSNDEGVWD [PRP8] | 3.45 ± 0.068 | 3.45 ± 0.056 | 2.87 ± 0.06 | 3.06 ± 0.048
FTNPSVDIQIINQYQLL [SWI1] | 1.44 ± 0.055 | 1.66 ± 0.07 | 1.43 ± 0.11 | 1.31 ± 0.063
VNVLLQSYFSQLKFEGF [BRR2] | 1.22 ± 0.048 | 1.51 ± 0.046 | 1.28 ± 0.074 | 1.48 ± 0.033
AQLTHSLRRIRDEMSKA [MED8] | 2.33 ± 0.12 | 2.35 ± 0.07 | 2.02 ± 0.11 | 1.99 ± 0.052
EQDPYSNASQMGNTGSG [RPB3] | 2.7 ± 0.13 | 2.45 ± 0.14 | 2.21 ± 0.2 | 2.95 ± 0.1
PQYINYSSIPSLQDSII [SSN2] | 2.97 ± 0.13 | 2.79 ± 0.12 | 2.9 ± 0.21 | 3.16 ± 0.086
FRHFIGIKAKHDKNIQK [ISW2] | 2.68 ± 0.089 | 2.6 ± 0.085 | 2.48 ± 0.06 | 2.51 ± 0.078

Sequence | protein stability index (doa10∆) | protein stability index (pdr5∆) | protein stability index (san1∆) | protein stability index (ubr1∆)
SDLINKDLVKNNVSFNA [FAS1] | 2.61 ± 0.068 | 2.58 ± 0.074 | 1.62 ± 0.11 | 2.26 ± 0.053
RNESLKNNSSIRNVIMS [SRB8] | 1.81 ± 0.035 | 2.11 ± 0.049 | 1.87 ± 0.084 | 2.09 ± 0.039
EEKVIERAAQKLRLDQL [ISW2] | 2.81 ± 0.15 | 2.89 ± 0.14 | 2.87 ± 0.12 | 2.68 ± 0.11
LKVQKLSRPSLPKIKTV [RPL35A] | 2.41 ± 0.062 | 3.11 ± 0.072 | 3.17 ± 0.057 | 3.17 ± 0.059
RYSNLVCKKADVDLHKR [RPS18A] | 3.05 ± 0.092 | 3.38 ± 0.096 | 3.58 ± 0.13 | 2.95 ± 0.083
ALHYLVPFIIAAMVIMH [COB] | 1.73 ± 0.066 | 1.29 ± 0.061 | 1.61 ± 0.15 | 1.4 ± 0.055
DWGQALRLLLLLIEFPY [YJR042W/NUP85] | 1.44 ± 0.05 | 1.29 ± 0.049 | 1.39 ± 0.067 | 1.21 ± 0.034
ESGEDEAEFSLRELSCC [RRP46] | 3.24 ± 0.05 | 3.12 ± 0.075 | 3.2 ± 0.064 | 3.16 ± 0.066
QPTNFTTKRLWSEITES [MCD1] | 1.99 ± 0.088 | 2.38 ± 0.066 | 2.04 ± 0.089 | 2.04 ± 0.09
VENSVLIEKVDDTAANN [YIL149C/MLP2] | 2.83 ± 0.15 | 2.82 ± 0.15 | 2.68 ± 0.14 | 2.79 ± 0.088
NLPKDKSGIPEFTPADP [SSN2] | 2.99 ± 0.091 | 3.12 ± 0.075 | 3.03 ± 0.076 | 3.47 ± 0.056
TELRQLFQENDDDDDDD [DSN1] | 2.03 ± 0.063 | 2.36 ± 0.071 | 2.24 ± 0.11 | 2.38 ± 0.092
NVFGQDNEDSDNLFGET [SWI3] | 3.37 ± 0.13 | 3.7 ± 0.13 | 3.23 ± 0.12 | 3.5 ± 0.094
YPLPKFPTTSHESLVTT [MED8] | 1.81 ± 0.056 | 1.92 ± 0.06 | 2.12 ± 0.08 | 1.72 ± 0.063
RDKVCKQINEARDEILP [PGD1] | 1.77 ± 0.091 | 1.6 ± 0.14 | 1.5 ± 0.16 | 
GLHSSEYKLRSLTLSFI [ECM29] | 2.18 ± 0.057 | 2.21 ± 0.061 | 2.41 ± 0.066 | 2.46 ± 0.049
GYENGMLAQWDLRSPEC [RPN14] | 3.15 ± 0.29 | 3.6 ± 0.2 |  | 3.65 ± 0.16
EECGRTIHRSFTICLND [CSN12] | 2.93 ± 0.064 | 2.87 ± 0.065 | 2.84 ± 0.055 | 2.86 ± 0.044
VRMLASPMLYKVPDISS [BRR2] | 2.28 ± 0.073 | 2.77 ± 0.078 | 1.96 ± 0.1 | 2.28 ± 0.051
KYDRKVPSPTGEYVKEP [RPO21] | 2.98 ± 0.1 | 3.22 ± 0.071 | 2.81 ± 0.089 | 3.09 ± 0.04
EDARRNPNPSSQRAQVV [RPC37] | 3.18 ± 0.073 | 3.26 ± 0.064 | 3.02 ± 0.064 | 3.38 ± 0.054
ETYVASYVVPRLYLKDQ [ECM29] | 2.46 ± 0.1 | 1.93 ± 0.088 | 1.91 ± 0.24 | 2.32 ± 0.054
RLQQQQAQAQAQANNNN [GAL11] | 2.03 ± 0.093 | 2.55 ± 0.078 | 2.74 ± 0.076 | 2.04 ± 0.06
QAPTTGFSFGSQLGGNK [YJL041W/NSP1] | 3.02 ± 0.051 | 3.01 ± 0.054 | 3.37 ± 0.045 | 3.17 ± 0.036
ITGGIIEETSAAIKDLD [RRP43] | 3.13 ± 0.2 |  |  | 
PKTGKVERSEAISKKDL [SEC65] | 3.63 ± 0.16 | 3.46 ± 0.081 | 3.33 ± 0.14 | 3.23 ± 0.073
FERLVPRGTAKLIIHRK [SMC3] | 3.01 ± 0.12 | 2.98 ± 0.12 |  | 2.86 ± 0.03
